Patent publication US20240401082A1 (Sanofi, published 2024)

What was measured:
[1] = molecular target: T1, human complement C1s enzyme (activated C1s) (human, UniProt P09871 16-437; P09871 438-688); assay: SPR, purified protein
T1 construct: Bought from Complement Technology; Disulfide-linked heterodimer; Biotinylated with EZ-Link Sulfo-NHS-LC-LC-Biotin when captured in BLI; also called active C1s; aC1s
T1 sequence 1: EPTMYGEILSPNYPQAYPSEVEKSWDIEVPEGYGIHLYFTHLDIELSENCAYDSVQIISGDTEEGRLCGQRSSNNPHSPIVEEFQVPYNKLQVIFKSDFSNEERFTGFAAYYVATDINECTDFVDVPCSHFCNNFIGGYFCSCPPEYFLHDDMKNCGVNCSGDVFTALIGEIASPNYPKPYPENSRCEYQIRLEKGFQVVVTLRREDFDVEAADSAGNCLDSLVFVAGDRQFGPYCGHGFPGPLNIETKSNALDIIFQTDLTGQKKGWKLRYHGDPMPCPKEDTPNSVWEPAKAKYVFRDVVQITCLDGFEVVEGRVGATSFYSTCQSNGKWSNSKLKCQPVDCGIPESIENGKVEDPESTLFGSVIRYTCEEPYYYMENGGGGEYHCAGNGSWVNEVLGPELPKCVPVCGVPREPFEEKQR
T1 sequence 2: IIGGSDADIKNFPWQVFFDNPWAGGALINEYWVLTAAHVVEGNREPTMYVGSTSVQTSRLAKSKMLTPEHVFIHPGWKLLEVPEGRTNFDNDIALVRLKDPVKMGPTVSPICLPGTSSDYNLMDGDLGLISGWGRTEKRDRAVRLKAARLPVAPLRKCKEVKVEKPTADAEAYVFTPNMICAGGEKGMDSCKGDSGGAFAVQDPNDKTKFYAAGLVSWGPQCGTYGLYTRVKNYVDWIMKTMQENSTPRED

[2] = molecular target: T1, human complement C1s enzyme (activated …); assay: cell-based or functional assay
[3] = molecular target: T1, human complement C1s enzyme (activated …); assay: cell-based or functional assay; remark: listed apart in the source
[4] = molecular target: T1, human complement C1s enzyme (activated …); assay: cell-based or functional assay; remark: listed apart in the source
[5] = molecular target: T1, human complement C1s enzyme (activated …); assay: cell-based or functional assay; remark: listed apart in the source
[6] = molecular target: T1, human complement C1s enzyme (activated …); assay: BLI (Octet), biotinylated target on streptavidin sensor
[7] = molecular target: T1, human complement C1s enzyme (activated …); assay: as above; remark: listed apart in the source
[8] = molecular target: T2, human complement factor Bb (human, UniProt P00751 260-764); assay: cell-based or functional assay
T2 sequence (P00751 260-764): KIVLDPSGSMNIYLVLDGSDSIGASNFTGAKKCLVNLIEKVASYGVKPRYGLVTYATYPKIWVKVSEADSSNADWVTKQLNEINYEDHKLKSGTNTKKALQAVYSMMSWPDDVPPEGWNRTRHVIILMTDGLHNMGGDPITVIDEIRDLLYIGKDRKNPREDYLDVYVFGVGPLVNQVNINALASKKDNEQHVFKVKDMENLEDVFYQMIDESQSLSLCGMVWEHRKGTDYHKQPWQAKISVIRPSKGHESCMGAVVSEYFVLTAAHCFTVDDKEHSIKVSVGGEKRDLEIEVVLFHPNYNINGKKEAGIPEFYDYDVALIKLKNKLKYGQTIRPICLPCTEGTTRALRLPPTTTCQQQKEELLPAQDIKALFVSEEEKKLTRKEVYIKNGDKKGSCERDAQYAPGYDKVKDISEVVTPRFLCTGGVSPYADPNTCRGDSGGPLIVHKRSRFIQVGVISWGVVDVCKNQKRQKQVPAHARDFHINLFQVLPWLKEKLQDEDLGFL

[9] = molecular target: T2, human complement factor Bb; assay: SPR, purified protein
[10] = molecular target: T2, human complement factor Bb; assay: cell-based or functional assay; remark: listed apart in the source
[11] = molecular target: T2, human complement factor Bb; assay: cell-based or functional assay; remark: listed apart in the source
[12] = molecular target: T2, human complement factor Bb; assay: cell-based or functional assay; remark: listed apart in the source
[13] = molecular target: T2, human complement factor Bb; assay: cell-based or functional assay; remark: listed apart in the source
[14] = molecular target: T2, human complement factor Bb; assay: cell-based or functional assay; remark: listed apart in the source
[15] = molecular target: T3, cynomolgus Bb (cynomolgus, UniProt A0A2K5TZY3 260-763); assay: method not given
T3 construct: Named only in the sentence that gives the KD; also called cynomolgus target
T3 sequence (A0A2K5TZY3 entry or part of it): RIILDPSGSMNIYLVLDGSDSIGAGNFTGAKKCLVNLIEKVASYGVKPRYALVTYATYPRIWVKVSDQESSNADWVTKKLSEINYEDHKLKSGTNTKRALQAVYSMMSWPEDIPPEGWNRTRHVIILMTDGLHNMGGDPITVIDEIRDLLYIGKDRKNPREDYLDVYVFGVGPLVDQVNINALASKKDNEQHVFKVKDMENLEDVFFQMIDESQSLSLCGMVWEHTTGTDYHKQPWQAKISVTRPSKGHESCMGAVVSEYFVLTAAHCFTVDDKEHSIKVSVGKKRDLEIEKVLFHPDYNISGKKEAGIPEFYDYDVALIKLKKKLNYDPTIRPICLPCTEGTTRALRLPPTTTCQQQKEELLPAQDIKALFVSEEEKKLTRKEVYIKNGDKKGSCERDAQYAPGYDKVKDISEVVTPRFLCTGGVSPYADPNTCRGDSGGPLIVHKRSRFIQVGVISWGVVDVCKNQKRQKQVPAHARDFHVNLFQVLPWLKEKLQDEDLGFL

[16] = molecular target: T2, human complement factor Bb; assay: BLI (Octet), biotinylated target on streptavidin sensor
[17] = molecular target: T2, human complement factor Bb; assay: BLI (Octet), biotinylated target on streptavidin sensor; protein purified to >98%
Description: (§1) Bio-layer interferometry (BLI) was used to assess the recombinant proteins' target engagement to and binding affinity for complement C1s enzyme (active C1s or “C1s” herein) and factor Bb (Bb) (Complement Technology, Tyler, TX, USA). C1s and Bb were biotinylated with EZ-Link™ Sulfo-NHS-LC-LC-Biotin (Thermo Fisher, Waltham, MA, USA) according to manufacturer instructions. Biotinylated C1s or Bb was loaded on Octet® Streptavidin (SA) Biosensors (Sartorius, Göttingen, Germany), followed by a concentration range of purified proteins. To assess dual target engagement, biotinylated active C1s or Bb was loaded onto sensors, followed by purified proteins (“first association phase”), followed by the non-captured complement target (Bb or active C1s, non-biotinylated; “second association phase”). The assays were performed at 30° C. using PBS with 0.1% Tween 20 as a diluent (FIG. 3).

[18] = molecular target: T2, human complement factor Bb; assay: BLI (Octet), biotinylated target on streptavidin sensor; mixture of the two scFabs from construct #9
Description: as §1

[19] = molecular target: T2, human complement factor Bb; assay: BLI (Octet), biotinylated target on streptavidin sensor; partially purified mixture of the two scFabs from construct #9; mixture of the two scFabs from construct #9
Description: as §1
(§2) The third expression construct, construct #9 (FIGS. 2B and 21), is composed of a bidirectional minCBA promoter driving expression of separate transcripts encoding human codon-optimized αBb scFab or αC1s scFab [αC1s scFab+αBb scFab], each followed by a bGH poly (A) signal.

[20] = molecular target: T2, human complement factor Bb; assay: BLI (Octet), biotinylated target on streptavidin sensor; remark: listed apart in the source
[21] = molecular target: T2, human complement factor Bb; assay: SPR
[22] = molecular target: T1, human complement C1s enzyme (activated …); assay: cell-based or functional assay; remark: listed apart in the source
[23] = molecular target: T1, human complement C1s enzyme (activated …); assay: cell-based or functional assay; remark: listed apart in the source
[24] = molecular target: cynomolgus C1s (cynomolgus); assay: method not given
[25] = molecular target: T1, human complement C1s enzyme (activated …); assay: method not given
[26] = molecular target: T1, human complement C1s enzyme (activated …); assay: BLI (Octet), biotinylated target on streptavidin sensor; protein purified to >98%
Description: as §1

[27] = molecular target: T1, human complement C1s enzyme (activated …); assay: BLI (Octet), biotinylated target on streptavidin sensor; mixture of the two scFabs from construct #9
Description: as §1

[28] = molecular target: T1, human complement C1s enzyme (activated …); assay: BLI (Octet), biotinylated target on streptavidin sensor; partially purified mixture of the two scFabs from construct #9
Description: as §1, §2

[29] = molecular target: T1, human complement C1s enzyme (activated …); assay: BLI (Octet), biotinylated target on streptavidin sensor; mixture of the two scFabs from construct #9; mixture of the two scFabs from construct #9

B1: parental anti-C1s Fab (Fab, V domains shown)
VH: QVQLVQSGAEVKKPGASVKLSCTASGFNIKDDYIHWVKQAPGQGLEWIGRIDPADGHTKYAPKFQVKVTITADTSTSTAYLELSSLRSEDTAVYYCARYGYGREVFDYWGQGTTVTVSS
VL: DIVLTQSPDSLAVSLGERATISCKASQSVDYDGDSYMNWYQQKPGQPPKILIYDASNLESGIPARFSGSGSGTDFTLTISSLEPEDFAIYYCQQSNEDPWTFGGGTKVEIKR
notes: also called Purified anti-C1s Fab
[1]
  Kd: 0.3 nM
[2]
  Wieslab classical pathway IC50: 5.5 nM
[3]
  CP IC50 (Wieslab): 6 nM
[4]
  IC50 CP (Wieslab): 5.4 nM
[5]
  IC50 (nM), complement activation with CP and AP activated simultaneously in vitro: 68.2 nM
[6]
  Kd: 0.3 nM
[7]
  Kd: 0.3 nM

B2: anti-Bb scFab (construct #4) (Fab)
chain: DIQMTQSPSTLSASVGDRVTITCKASQDVGTAVAWYQQKPGKAPKLLIYWASTRHTGVPDRFSGSGSGTDFTLTISSLQAEDFAVYFCHQHSSNPLTFGQGTKLEIKRTVAAPSVFIFPPSDEQLKSGTASVVCLLNNFYPREAKVQWKVDNALQSGNSQESVTEQDSKDSTYSLSSTLTLSKADYEKHKVYACEVTHQGLSSPVTKSFNRGECGGGGSGGGGSGGGGSGGGGSGGGGSGGGGSGGGGSEVQLVESGGGLVKPGGSLRLSCAASGFTFSNYAMSWVRQAPGKRLEWVATISNRGSYTYYPDSVKGRFTISRDNAKNSLYLQMNSLRAEDTALYYCARERPMDYWGQGTLVTVSSASTKGPSVFPLAPCSRSTSESTAALGCLVKDYFPEPVTVSWNSGALTSGVHTFPAVLQSSGLYSLSSVVTVPSSSLGTKTYTCNVDHKPSNTKVDKRV
notes: Single-chain Fab: LC-(G4S)7-HC (VH-CH1); there it stood in a mixture with the anti-C1s scFab; also called αBb scFab; Purified anti-Bb scFab
[8]
  Wieslab AP IC50 of #9-derived fragments, fold of purified anti-Bb Fab: ~3 fold
[9]
  Kd: 3.7 nM
[10]
  Wieslab alternative pathway IC50: 190 nM
[11]
  AP IC50 (Wieslab), mixture of scFabs from construct #9: 224 nM
[12]
  IC50 AP Wieslab EIA: 193 nM
[13]
  IC50 AP (Wieslab): 193 nM
  IC50 AP (Wieslab), mixture of scFabs from construct #9: 224 nM
[14]
  IC50 (nM), complement activation with CP and AP activated simultaneously in vitro: 633 nM
[15]
  Kd: 14.8 nM
[16]
  Kd: 0.7 nM
  koff: 0.00049 s⁻¹
  kon: 670000 M⁻¹ s⁻¹
[17]
  Kd: 0.7 nM
[18]
  Kd: 0.8 nM
  koff: 0.0002 s⁻¹
  kon: 260000 M⁻¹ s⁻¹
[19]
  Kd: 0.9 nM

B3: parental anti-Bb Fab (Fab, V domains shown)
VH: EVQLVESGGGLVKPGGSLRLSCAASGFTFSNYAMSWVRQAPGKRLEWVATISNRGSYTYYPDSVKGRFTISRDNAKNSLYLQMNSLRAEDTALYYCARERPMDYWGQGTLVTVSS
VL: DIQMTQSPSTLSASVGDRVTITCKASQDVGTAVAWYQQKPGKAPKLLIYWASTRHTGVPDRFSGSGSGTDFTLTISSLQAEDFAVYFCHQHSSNPLTFGQGTKLEIKR
notes: also called Purified anti-Bb Fab
[9]
  Kd: 2.7 nM
[10]
  Wieslab alternative pathway IC50: 144 nM
[11]
  AP IC50 (Wieslab): 99 nM
[13]
  IC50 AP (Wieslab): 144 nM
[14]
  IC50 (nM), complement activation with CP and AP activated simultaneously in vitro: 463 nM
[20]
  Kd: 0.7 nM
[16]
  Kd: 0.73 nM
  koff: 0.00051 s⁻¹
  kon: 700000 M⁻¹ s⁻¹

B4: parental anti-Bb IgG4 antibody VH6/Vκ7-IgG4v2 (antibody, V domains shown)
VH: EVQLVESGGGLVKPGGSLRLSCAASGFTFSNYAMSWVRQAPGKRLEWVATISNRGSYTYYPDSVKGRFTISRDNAKNSLYLQMNSLRAEDTALYYCARERPMDYWGQGTLVTVSS
VL: DIQMTQSPSTLSASVGDRVTITCKASQDVGTAVAWYQQKPGKAPKLLIYWASTRHTGVPDRFSGSGSGTDFTLTISSLQAEDFAVYFCHQHSSNPLTFGQGTKLEIK
notes: IgG4 (IgG4v2), from U.S. Pat. No. 11,242,382 and WO 2021/216458; full chains of the mAb are not; also called anti-Bb mAb
[21]
  Kd: 7.3 nM
[10]
  Wieslab alternative pathway IC50: 190 nM

B5: anti-C1s scFab (construct #2) (Fab)
chain: DIVLTQSPDSLAVSLGERATISCKASQSVDYDGDSYMNWYQQKPGQPPKILIYDASNLESGIPARFSGSGSGTDFTLTISSLEPEDFAIYYCQQSNEDPWTFGGGTKVEIKRTVAAPSVFIFPPSDEQLKSGTASVVCLLNNFYPREAKVQWKVDNALQSGNSQESVTEQDSKDSTYSLSSTLTLSKADYEKHKVYACEVTHQGLSSPVTKSFNRGECGGGGSGGGGSGGGGSGGGGSGGGGSGGGGSGGGGSQVQLVQSGAEVKKPGASVKLSCTASGFNIKDDYIHWVKQAPGQGLEWIGRIDPADGHTKYAPKFQVKVTITADTSTSTAYLELSSLRSEDTAVYYCARYGYGREVFDYWGQGTTVTVSSASTKGPSVFPLAPCSRSTSESTAALGCLVKDYFPEPVTVSWNSGALTSGVHTFPAVLQSSGLYSLSSVVTVPSSSLGTKTYTCNVDHKPSNTKVDKRV
notes: Single-chain Fab: LC-(G4S)7-HC (VH-CH1); there it stood in a mixture with the anti-Bb scFab; also called αC1s scFab; Purified anti-C1s scFab
[22]
  Wieslab CP IC50 of #9-derived fragments, fold of purified anti-C1s Fab: ~25 fold
[1]
  Kd: 0.3 nM
[2]
  Wieslab classical pathway IC50: 6.7 nM
[3]
  CP IC50 (Wieslab), mixture of scFabs from construct #9: 157 nM
[23]
  IC50 CP Wieslab EIA: 7.2 nM
[4]
  IC50 CP (Wieslab): 7.2 nM
  IC50 CP (Wieslab), mixture of scFabs from construct #9: 157 nM
[5]
  IC50 (nM), complement activation with CP and AP activated simultaneously in vitro: 97.3 nM
[24]
  Kd: 0.016 nM
[25]
  Kd: 0.34 nM
[7]
  Kd: 0.3 nM
[26]
  Kd: 0.3 nM
[27]
  koff: 0.00028 s⁻¹
  kon: 150000 M⁻¹ s⁻¹
[28]
  Kd: 1.8 nM
[29]
  Kd: 1.9 nM
